In US20200071424A1 (SHIONOGI, published 2020):
Where a chain is given by its changes, count along the chain named. Like-named read-outs stand apart in the source and are kept apart here. One block for each binder: values may come before it.

Tests used:
[1] = target: T1, human [1-305]-mouse chimeric EL (human; mouse, UniProt Q9WVG5 306-500); assay: cell-based or functional assay
T1 sequence: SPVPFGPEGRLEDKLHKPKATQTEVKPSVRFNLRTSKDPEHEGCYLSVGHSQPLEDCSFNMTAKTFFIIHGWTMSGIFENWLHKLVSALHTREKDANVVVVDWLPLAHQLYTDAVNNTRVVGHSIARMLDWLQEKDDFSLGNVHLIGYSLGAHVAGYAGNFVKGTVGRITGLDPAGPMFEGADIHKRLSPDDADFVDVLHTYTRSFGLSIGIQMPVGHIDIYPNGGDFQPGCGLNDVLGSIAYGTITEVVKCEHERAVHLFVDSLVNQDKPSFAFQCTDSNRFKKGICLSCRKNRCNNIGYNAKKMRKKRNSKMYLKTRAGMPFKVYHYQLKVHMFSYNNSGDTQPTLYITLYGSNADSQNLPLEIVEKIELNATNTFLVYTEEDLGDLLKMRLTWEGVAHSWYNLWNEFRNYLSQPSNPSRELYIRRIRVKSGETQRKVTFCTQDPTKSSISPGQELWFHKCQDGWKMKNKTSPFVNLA

[2] = target: human-mouse chimeric EL (construct not specified); assay: cell-based or functional assay
baboon EL [3] = target: baboon EL (baboon); assay: cell-based or functional assay
cynomolgus monkey EL [4] = target: cynomolgus monkey EL (cynomolgus monkey); assay: cell-based or functional assay
cynomolgus monkey EL [5] = target: cynomolgus monkey EL (cynomolgus monkey); assay: cell-based or functional assay; remark: listed apart in the source
[6] = target: T1, human [1-305]-mouse chimeric EL; assay: Biacore; EL captured by anti-C2-tag Ab; bivalent fit
Procedure: (§1) The binding affinities of anti-EL antibodies were measured using Biacore. […] Then, anti-EL antibodies were added and the binding affinities were calculated by bivalent fitting of BIAevaluation software.

baboon EL [7] = target: T2, baboon EL (baboon); assay: as above
T2 construct: Heparin extract
Procedure: as §1

cynomolgus monkey EL [8] = target: T3, cynomolgus monkey EL (cynomolgus monkey); assay: as above
T3 construct: Heparin extract; also called cynomolgus EL; Cynomolgus EL
Procedure: as §1

mouse EL = target: T4, mouse EL (mouse, UniProt Q9WVG5 21-500); assay: ELISA: antibody captured on anti-mouse IgG-Fc plate, EL heparin extract added, detection with biotin anti-C2-tag antibody and HRP-streptavidin, A450
T4 construct: Heparin extract
T4 sequence (looked up): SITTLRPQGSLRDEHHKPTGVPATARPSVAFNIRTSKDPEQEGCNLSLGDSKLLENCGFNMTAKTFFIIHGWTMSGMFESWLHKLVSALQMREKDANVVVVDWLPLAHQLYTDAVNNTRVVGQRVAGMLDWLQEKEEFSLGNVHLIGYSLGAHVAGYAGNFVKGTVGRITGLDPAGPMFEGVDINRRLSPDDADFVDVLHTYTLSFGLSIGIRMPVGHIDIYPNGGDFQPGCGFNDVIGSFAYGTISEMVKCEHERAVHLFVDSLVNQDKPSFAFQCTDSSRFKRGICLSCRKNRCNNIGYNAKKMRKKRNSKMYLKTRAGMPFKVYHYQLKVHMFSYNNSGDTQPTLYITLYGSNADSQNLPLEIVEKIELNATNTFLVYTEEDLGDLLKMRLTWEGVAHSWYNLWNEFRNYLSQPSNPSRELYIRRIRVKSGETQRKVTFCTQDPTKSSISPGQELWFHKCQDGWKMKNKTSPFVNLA
Procedure: (§2) Assay buffer containing 15 μl of anti-EL antibody was added to anti-mouse IgG-Fc antibody-immobilized microtiter plate, and incubated for 2 hr. […] After washing the wells three times with 90 μL of washing buffer, 15 μl of assay buffer containing biotin-labeled anti-C2-tag antibody and HRP-labeled Streptavidin were added to the wells and incubated at room temperature for 1 hr. After washing the wells three times with 90 μL of washing buffer, 15 μL of TMB+—Substrate—Chromogen (DAKO) was added and incubated at room temperature for 30 min and then 15 μL of 0.05 M H2SO₄ was added and absorbance at 450 nm was measured (FIG. 3A to 3K).

baboon EL [9] = target: T2, baboon EL; assay: as above
Procedure: as §2

cynomolgus monkey EL [10] = target: T3, cynomolgus monkey EL; assay: as above
Procedure: as §2

[11] = target: T5, human [1-157]-mouse chimeric EL (human; mouse, UniProt Q9WVG5 158-500); assay: as above
T5 construct: Heparin extract, detected by an anti-C2-tag antibody
T5 sequence: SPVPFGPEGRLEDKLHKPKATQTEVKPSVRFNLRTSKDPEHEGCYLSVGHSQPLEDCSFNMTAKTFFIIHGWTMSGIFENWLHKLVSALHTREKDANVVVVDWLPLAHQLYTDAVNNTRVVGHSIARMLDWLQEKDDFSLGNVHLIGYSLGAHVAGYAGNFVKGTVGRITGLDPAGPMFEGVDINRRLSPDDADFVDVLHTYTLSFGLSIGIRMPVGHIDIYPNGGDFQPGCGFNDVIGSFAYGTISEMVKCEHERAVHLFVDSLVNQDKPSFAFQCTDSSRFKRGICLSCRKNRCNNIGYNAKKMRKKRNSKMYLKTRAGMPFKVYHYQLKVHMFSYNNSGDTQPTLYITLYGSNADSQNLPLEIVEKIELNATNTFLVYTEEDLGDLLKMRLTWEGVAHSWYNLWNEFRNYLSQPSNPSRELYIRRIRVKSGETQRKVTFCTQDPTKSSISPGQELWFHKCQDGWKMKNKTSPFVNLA
Procedure: as §2

B2: 14A1 (antibody, mouse IgG1, V domains shown)
VH: QIQLVQSGPELKKPGETVKISCKASGYTFTNYGMNWVKQAPGKGLKWMGWINTYSGVPTYADDFKGRFAFSLETSASTAYLQINNFKNEDTATYFCARFSYYGRHYFDYWGQGTALTASS
VL: DIVLTQSPASLAVSLGQRATISCKASQSVDYDGDSYMNWYQQKPGQPPKLLIYAASNLKSGIPARFSGSGSGTDFTLNIHPVEEEDAATYYCQQTTDDPPWTFGGGTKLEIK
notes: mouse IgG1 from hybridoma
- Neutralizing activity IC50 [2]: 5.8 nM
- Neutralizing activity IC50 (baboon EL [3]): 2.7 nM
- Neutralizing activity IC50 (cynomolgus monkey EL [4]): 3.1 nM
- Kd [6]: 0.5 nM
- koff [6]: 0.0001 s⁻¹
- kon [6]: 210000 M⁻¹ s⁻¹
- Kd (baboon EL [7]): 3.3 nM
- koff (baboon EL [7]): 0.00062 s⁻¹
- kon (baboon EL [7]): 190000 M⁻¹ s⁻¹
- Kd (cynomolgus monkey EL [8]): 3.9 nM
- koff (cynomolgus monkey EL [8]): 0.00081 s⁻¹
- kon (cynomolgus monkey EL [8]): 210000 M⁻¹ s⁻¹
- binding result (mouse EL): no binding (tested: about 330 ng/mL)
- EC50 (read off the curve) (cynomolgus monkey EL [10]): ~20 ng/mL
- EC50 (read off the curve) [11]: ~7 ng/mL

B3: 2D5 (antibody, mouse IgG2a, V domains shown)
VH: B2 VH with A61T, Y80F, F86L, A115T, A118V
VL: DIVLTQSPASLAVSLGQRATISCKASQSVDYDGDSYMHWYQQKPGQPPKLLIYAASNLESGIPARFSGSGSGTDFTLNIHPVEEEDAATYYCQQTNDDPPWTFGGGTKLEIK
notes: mouse IgG2a from hybridoma
- Neutralizing activity IC50 [2]: 2.7 nM
- Neutralizing activity IC50 (baboon EL [3]): 2.9 nM
- Neutralizing activity IC50 (cynomolgus monkey EL [4]): 3 nM
- Kd [6]: 1.1 nM
- koff [6]: 9.3e-05 s⁻¹
- kon [6]: 85000 M⁻¹ s⁻¹
- Kd (baboon EL [7]): 2.2 nM
- koff (baboon EL [7]): 0.00017 s⁻¹
- kon (baboon EL [7]): 77000 M⁻¹ s⁻¹
- Kd (cynomolgus monkey EL [8]): 3.8 nM
- koff (cynomolgus monkey EL [8]): 0.00028 s⁻¹
- kon (cynomolgus monkey EL [8]): 74000 M⁻¹ s⁻¹
- binding result (mouse EL): no binding (tested: about 330 ng/mL)
- EC50 (read off the curve) (baboon EL [9]): ~20 ng/mL
- EC50 (read off the curve) (cynomolgus monkey EL [10]): ~10 ng/mL
- EC50 (read off the curve) [11]: ~8 ng/mL

Continued, values first:

- Neutralizing activity IC50 [1]: 2.6 nM
- Neutralizing activity IC50 [2]: 2.3 nM
- Neutralizing activity IC50 (baboon EL [3]): 2.4 nM
- Neutralizing activity IC50 (cynomolgus monkey EL [4]): 1.9 nM
- Neutralizing activity IC50 (cynomolgus monkey EL [5]): 2.7 nM
- Kd [6]: 0.63 nM
- koff [6]: 0.00011 s⁻¹
- kon [6]: 180000 M⁻¹ s⁻¹
- Kd (baboon EL [7]): 1.6 nM
- koff (baboon EL [7]): 0.00026 s⁻¹
- kon (baboon EL [7]): 170000 M⁻¹ s⁻¹
- Kd (cynomolgus monkey EL [8]): 4.2 nM
- koff (cynomolgus monkey EL [8]): 0.00038 s⁻¹
- kon (cynomolgus monkey EL [8]): 91000 M⁻¹ s⁻¹
- binding result (mouse EL): no binding (tested: about 330 ng/mL)
- EC50 (read off the curve) (baboon EL [9]): ~20 ng/mL
- EC50 (read off the curve) (cynomolgus monkey EL [10]): ~10 ng/mL
- EC50 (read off the curve) [11]: ~6 ng/mL
B1: 53A11 (antibody, mouse IgG2a, V domains shown)
VH: EVQLQQSGPELLKPGASVKISCKASGYTFTDYTMHWVKQSHGKSLEWIGGINPYYGGTTYNEKFKDKATLTVDKSSSTAYMELRSLTSEDSAVYYCAKGDYYGGSYNYWGQGTTLTVSS
VL: DIVLTQSLATLSVTPGDSVSLSCRASQDISNSLHWYQQKSHESPRLLIKYASQSISGIPSRFSGSGSGTDFTLSINSVETEDFGMYFCQQSNSWPYTFGGGTKLEIK
notes: mouse IgG2a from hybridoma; also called 53A11 (mouse mAb)

- Neutralizing activity IC50 [2]: 3.7 nM
- Neutralizing activity IC50 (baboon EL [3]): 2.6 nM
- Neutralizing activity IC50 (cynomolgus monkey EL [4]): 2.1 nM
- Kd [6]: 0.97 nM
- koff [6]: 0.00011 s⁻¹
- kon [6]: 110000 M⁻¹ s⁻¹
- Kd (baboon EL [7]): 4.5 nM
- koff (baboon EL [7]): 0.00035 s⁻¹
- kon (baboon EL [7]): 78000 M⁻¹ s⁻¹
- Kd (cynomolgus monkey EL [8]): 1.9 nM
- koff (cynomolgus monkey EL [8]): 0.00023 s⁻¹
- kon (cynomolgus monkey EL [8]): 120000 M⁻¹ s⁻¹
- binding result (mouse EL): no binding (tested: about 330 ng/mL)
- EC50 (read off the curve) (baboon EL [9]): ~9 ng/mL
- EC50 (read off the curve) (cynomolgus monkey EL [10]): ~10 ng/mL
- EC50 (read off the curve) [11]: ~6 ng/mL
B4: 7D4 (antibody, mouse IgG1, V domains shown)
VH: B2 VH with G44D, F86L, A115T, A118V
VL: B2 VL with K49Q, K59G, Q93H, T95S
notes: mouse IgG1 from hybridoma
